The source of these data is the RNAGym collection of RNA variant scans (doi:10.1073/pnas.2313332121).

To fix the notation:
B1: TPR t1 (parent)
chain: GACCAAUCUGCCCUCAGAGCUCGAGAACAUCUUCGGAUGCAGAGGAGGCAGGCUUCGGUGGCGCGAUAGCGCCAACGUCCUCAACCUCCAAUGCAUCCCACCACAUGAUGAUGCCUGAAGAGCCUUGGUUUUUUG

In the series the parent is B1. Description: polymerase ribozyme fitness, log enrichment relative to wild type (log ratio); higher = more active; in vitro selection for triplet polymerase activity. The gist of the method:
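Fitness compares each genotype's enrichment to that of the wild type on a logarithmic scale, averaging replicates with inverse-variance weights. The logarithm is base 2. Enrichment came from Illumina sequencing of input and output libraries after one triplicate round of in vitro selection, which included frozen incubation at −7 °C, of PCR-built, transcribed mutant libraries of each subunit of a heterodimeric triplet polymerase ribozyme. Only genotypes with ≥10 input reads and ≥1 read per output were kept.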
On to GACCAAUCUGCCCUCAGAGCUCGAGAACAUCUUCGGAUGCAAAGGAGGCAGGCUUCGGUGGCGCGAUAGCGCAAACGUCCUCAACCUCCAAUGCAUCCCACCAUAUGAUGAUGCCUGAAGAGCCUUGAUUUUUUG [G42A C73A C104U G128A], for which the “polymerase ribozyme fitness (log ratio)” value is -3.49.
As to GACCAAUCUGCCCUCAGAGCUCGAGAACAUCUUCGGAUGCAAAGGAGGCAGGCUUCGGUGGCGCGAUAGCGACAACGUCCUCAACCUCCAAUGCAUCCCACCAAAUGAUGAUGCCUGAAGAGCCUUGGUCUUUUG [G42A C72A C104A U130C], the “polymerase ribozyme fitness (log ratio)” value was -5.17.
The result for GACCAAUCUGCCCUCAGAGCUCGAGAACAUCUUCGGAUGCAAAGGAGGCAGGCUUCGGUGGCGCGAUAGCGCCAACGUCCUCAACCUACAAUGCAUCCCACCACAUGAUGAUGCCUGAAGUGCCUUGGUUUUUUG [G42A C88A A121U] reads 0.406; that for GACCAAUCUGCCCUCAGAGCUCGAGAACAUCUUCGGAUGCAAAAGAUGCAGGCUUCGGUGGCGCGAUAGCGCCAACGUCCUCAACCUCCAAUGCAUCCCACCACAUGAUGAUGCCUGAAGAGCCUUGGUUUUUUG [G42A G44A G47U], -3.4; that for GACCAAUCUGCCCUCAGAGCUCGAGAACAUCUUCGGAUGCAAAGGAGGCAGGCUUUGGUGGCGCGAUAGCGCCAACGUCUUCAACCUCCAAUGCAUCCCACCACAUGAUGAUGCCUGAAGAGCCUUGGUUUUUUG [G42A C56U C80U], -3.08.
On to GACCAAUCUGCCCUCAGAGCUCGAGAACAUCUUCGGAUGCAAAGGAGGCAGGCUUCGGUGGGGCGAUACCGCCAACGUCCUCAACCUCCAAUGCAUCCAACCACAUGAUGGUGCUUGAAGAGCCUUGGCUUUUUG [G42A C62G G69C C99A A111G C115U U129C], for which the “polymerase ribozyme fitness (log ratio)” value was -6.83.
Consider GACCAAUCUGCCCUCAGAGCUCGAGAACAUCUUCGGAUGCUGAGGAGGCAGGCUUCGGUGGCGCGAUAGCGCCAACGUCCUCAACCUCCAAUGCAUCCCACCACAUGAUGAUUCCUGAAGAGCCUUGGUUUUUUG [A41U G113U], for which the “polymerase ribozyme fitness (log ratio)” value was -3.98.
Take GACCAAUCUGCCCUCAGAGCUCGAGAACAUCUUCGGAUGCUGAGGAGGCAGGCUUCGGUGGCGCGAUAGCGCCAACGUCCACAACCUCCAAUGCAUCCCACCACAUGAUGAUGCCUGAAGCGCCUUGGUUUUUUG [A41U U81A A121C]: the “polymerase ribozyme fitness (log ratio)” value is -0.475.
Take GACCAAUCUGCCCUCAGAGCUCGAGAACAUCUUCGGAUGCAAAGGAGGCAGGCUUCGGUGGCGCGAUAGCGCCUACGUCCUCAACCUCCAAUGCAUCCCACCACAUGAUGAUGCCUGAGGAGCCUUGGUUUUUUG [G42A A74U A119G]: the “polymerase ribozyme fitness (log ratio)” value was -1.81.
Regarding GACCAAUCUGCCCUCAGAGCUCGAGAACAUCUUCGGAUGCUGAGGAGGCAGGCUUCGGUGGCGCGAUAGCGCCAACGUCCUCAACCUCCAAUGCAUCCCACCACAUGAUGAUGCCUGAAGAGCCUUGGAUUUUUG [A41U U129A], the “polymerase ribozyme fitness (log ratio)” value was -2.58.
The result for GACCAAUCUGCCCUCAGAGCUCGAGAACAUCUUCGGAUGCAAAGGAGGCAGGCUUCGGUGGCGCGAUAGCGCCAACGUCCUCAAGCUCCAAUACAUCCCACCACAUGAUGAUGCCUGAAGAGCCUUGGUUUUUUG [G42A C85G G93A] reads -3.19; that for GACCAAUCUGCCCUCAGAGCUCGAGAACAUCUUCGGAUGCAAAGGAGGGAGGCUUCGGUGGCGCGAUAGCGCCAACGUCCUCAACCUCCAAUGCAUCCCACCACAUGAUGAUGCCUGAAGAGCCUUGGUUUUUUG [G42A C49G], -1.71.
Take GACCAAUCUGCCCUCAGAGCUCGAGAACAUCUUCGGAUGCAAAUGAGGCAGGCUUCGGUGGCGCGAUAGCGCAAACGUCCUCAACCUCCAAUGCAUCCCACCACAUGAUGAUGCCUGAAGAGCCUUGGUUUUUUG [G42A G44U C73A]: the “polymerase ribozyme fitness (log ratio)” value is -1.69.
The result for GACCAAUCUGCCCUCAGAGCUCGAGAACAUCUUCGGAUGCAAAGGAGGCAGGCUUCGGUGGCGCGAUAGCGCCAACGUCCUCAACCUCCAAUGCAUCCCACCACAUGAUGAUGUCUGAAGAGCCUUGGUUUUUUG [G42A C114U] reads -2.35; that for GACCAAUCUGCCCUCAGAGCUCGAGAACAUCUUCGGAUGCAAAGGAGGCAGGCUUCGGUGGCGCGAUAGCGCCCACGUCCUCAACCUCCAAUGCAUCCCACCACAUGAUGAUGCCUGAACAGCCUUGGUUUUUUG [G42A A74C G120C], -2.11.
Turning to GACCAAUCUGCCCUCAGAGCUCGAGAACAUCUUCGGAUGCAAAGGAGGCAGGCUUCGGUGGUGCGAUAGCGCCAACGUCCUCACCCUCCAAUGCAUCCCACCACAUGAUGAUGCCUGAAGAGCCUUGGUUUUUUG [G42A C62U A84C], the “polymerase ribozyme fitness (log ratio)” value is -3.09.
In the case of GACCAAUCUGCCCUCAGAGCUCGAGAACAUCUUCGGAUGCUGAGGAGGCAGGCUUCGGUGGCGCGAUAGCGCCAACGUCCUCAACCACCAAUGCAUCCCACCACAUGAUGAUGCCUGAAGAGCCUUGGUUUUUUG [A41U U87A], the “polymerase ribozyme fitness (log ratio)” value was -1.14.
The result for GACCAAUCUGCCCUCAGAGCUCGAGAACAUCUUCGGAUGCAAAGGAGGCAGGCUUAGGUGGCGCGAUAGCGCCAACGUCCUCAACCUCCAAUGCAGCCCACCACAUGAUGAUGCCUGAAGAGCCUUGGUUUUUUG [G42A C56A U96G] reads -2.79; that for GACCAAUCUGCCCUCAGAGCUCGAGAACAUCUUCGGAUGCAAAGGAGGCAGGCUUCGGUUGCGCGAUAGCGCCAACGUCCUUAACCUCCAAUGCAUCCCACCACAUGAUGAGGCCUGAAGAGCCUUCGUUUUUUG [G42A G60U C82U U112G G127C], -3.6.
For the variant GACCAAUCUGCCCUCAGAGCUCGAGAACAUCUUCGGAUGCAAAGGAAGCAGGCUUCGGUGGCGCGAUAGCGCCAACGUCCUCAACCUCCAAUGCAUCCCACCACAUGAUGAUGCCUGAAGAGCCUUGGUUUUUUG [G42A G47A], the “polymerase ribozyme fitness (log ratio)” value is -2.34.
With GACCAAUCUGCCCUCAGAGCUCGAGAACAUCUUCGGAUGCUGAGGAGGCAGGCUUCGGUGGCGCGAUAGCGCCAACGUCCUCAACCUCCAAUGCAUCCCACCACAUGAUGAUGCCUGAAGAGCCUUGGUUUUUUU [A41U G135U], the “polymerase ribozyme fitness (log ratio)” value was -2.4.
